Laboratory results as given in publication PMC7041945, “Misfolded proteins bind and activate death receptor 5 to trigger apoptosis during unresolved endoplasmic reticulum stress” (eLife, 2020).

How the values were obtained:
HCT116 cells [1] = assay: Trypan blue staining, automated cell counting; type: cell-based, Homo sapiens; design: key to Trypan blue- / Trypan blue+ / avg Trypan blue- / avg Trypan blue+: % of cells (Trypan blue positive or negative); conditions: for avg Trypan blue+ / avg Trypan blue-: avg of Rep 1-3; for Dead concentration / Live concentration / Total Concentration / Viability (%): BF
Experimental: Cells seeded in a 6-well plate were transfected with the specified plasmid for 24 hr and harvested via trypsinization in complete media and ultimately resuspended in 400 μl of media to obtain a concentration of 1.0–3.0 × 10^6 cells/ml. The cell suspension was then mixed 1:1 with 0.4% Trypan blue (Sigma-Aldrich) and incubated at 37°C for 30 min. The percentage of cells staining positive for was then quantified using the Countess II FL Automated Cell Counter (ThermoFisher, catalog # AMQAF1000) default brightfield settings with disposable slides.

HCT116 cells [2] = assay: Annexin V (and SytoxBlue) flow cytometry for apoptosis; type: cell-based, Homo sapiens; conditions: for Mean ± SEM (Fig 1S2D): n=3
Experimental: Cells seeded in a 6-well plate were transfected with the specified plasmid for 24 hr and harvested via trypsinization in complete media to allow a 30 min recovery at 37°C. The samples were then centrifuged at 500xg for 5 min and resuspended In 150 μl of a 1:20 dilution of Annexin V-AlexaFluor 647 conjugate (Thermo Scientific #A23204). Samples were transferred to a 96-well U-bottom plate and incubated in the dark for 15 min at RT. The distribution of apoptotic cells was determined by flow cytometry on a BD LSR II.

[3] = hct chop 62, biological replicate 1 (05.22.2019)
[4] = hct chop 125 (ng), biological replicate 1 (05.22.2019)
[5] = hct chop 125 (ng), biological replicate 2 (05.24.2019)
[6] = hct chop 125 (ng), biological replicate 3 (05.24.2019)
[7] = hct chop 250 (ng), biological replicate 1 (05.22.2019)
[8] = hct chop 250 (ng), biological replicate 2 (05.24.2019)
[9] = hct chop 250 (ng), biological replicate 3 (05.24.2019)
[10] = hct chop 500 (ng), biological replicate 1 (05.22.2019)
[11] = hct chop 500 (ng), biological replicate 2 (05.24.2019)
[12] = hct chop 500 (ng), biological replicate 3 (05.24.2019)
[13] = hct chop 1000 (ng), biological replicate 1 (05.24.2019)
[14] = hct chop 1000 (ng), biological replicate 2 (05.24.2019)
[15] = hct chop 1000 (ng), biological replicate 3 (05.24.2019)

B1: CHOP: CHOP (canonical isoform) expression vector, expression of CHOP in absence of ER stress (protein, UniProt P35638 1-169, looked up)
DNA damage-inducible …: MAAESLPFSFGTLSSWELEAWYEDLQEVLSSDENGGTYVSPPGNEEEESKIFTTLDPASLAWLTEEEPEPAEVTSTSQSPHSPDSSQSSLAQEEEEEDQGRTRKRKQSGHSPARAGKQRMKEKEQENERKVAQLAEENERLKQEIERLTREVEATRRALIDRMVNLHQA
modifications: expression vector
notes: CHOP (canonical isoform) expression vector, expression of CHOP in absence of ER stress
Trypan blue+ (HCT116 cells [1]; CHOP - 125 ng, Rep 1): 4.216 | Trypan blue- (HCT116 cells [1]; CHOP - 125 ng, Rep 1): 95.7841 | Trypan blue+ (HCT116 cells [1]; CHOP - 125 ng, Rep 2): 3.766 | Trypan blue- (HCT116 cells [1]; CHOP - 125 ng, Rep 2): 96.2338 | Trypan blue+ (HCT116 cells [1]; CHOP - 125 ng, Rep 3): 4.155 | Trypan blue- (HCT116 cells [1]; CHOP - 125 ng, Rep 3): 95.8447 | avg Trypan blue+ (HCT116 cells [1]; CHOP - 125 ng): 4.046 | avg Trypan blue- (HCT116 cells [1]; CHOP - 125 ng): 95.9542 | Trypan blue+ (HCT116 cells [1]; CHOP - 250 ng, Rep 1): 6.303 | Trypan blue- (HCT116 cells [1]; CHOP - 250 ng, Rep 1): 93.6968 | Trypan blue+ (HCT116 cells [1]; CHOP - 250 ng, Rep 2): 12.2829 | Trypan blue- (HCT116 cells [1]; CHOP - 250 ng, Rep 2): 87.7171 | Trypan blue+ (HCT116 cells [1]; CHOP - 250 ng, Rep 3): 5.723 | Trypan blue- (HCT116 cells [1]; CHOP - 250 ng, Rep 3): 94.2771 | avg Trypan blue+ (HCT116 cells [1]; CHOP - 250 ng): 8.103 | avg Trypan blue- (HCT116 cells [1]; CHOP - 250 ng): 91.897 | Trypan blue+ (HCT116 cells [1]; CHOP - 500 ng, Rep 1): 14.1844 | Trypan blue- (HCT116 cells [1]; CHOP - 500 ng, Rep 1): 85.8156 | Trypan blue+ (HCT116 cells [1]; CHOP - 500 ng, Rep 2): 6.367 | Trypan blue- (HCT116 cells [1]; CHOP - 500 ng, Rep 2): 93.633 | Trypan blue+ (HCT116 cells [1]; CHOP - 500 ng, Rep 3): 6.466 | Trypan blue- (HCT116 cells [1]; CHOP - 500 ng, Rep 3): 93.534 | avg Trypan blue+ (HCT116 cells [1]; CHOP - 500 ng): 9.006 | avg Trypan blue- (HCT116 cells [1]; CHOP - 500 ng): 90.9942 | Trypan blue+ (HCT116 cells [1]; CHOP - 1000 ng, Rep 1): 8.481 | Trypan blue- (HCT116 cells [1]; CHOP - 1000 ng, Rep 1): 91.5194 | Trypan blue+ (HCT116 cells [1]; CHOP - 1000 ng, Rep 2): 6.72 | Trypan blue- (HCT116 cells [1]; CHOP - 1000 ng, Rep 2): 93.2796 | Trypan blue+ (HCT116 cells [1]; CHOP - 1000 ng, Rep 3): 4.533 | Trypan blue- (HCT116 cells [1]; CHOP - 1000 ng, Rep 3): 95.4674 | avg Trypan blue+ (HCT116 cells [1]; CHOP - 1000 ng): 6.578 | avg Trypan blue- (HCT116 cells [1]; CHOP - 1000 ng): 93.4221 | PARP cleavage and trypan blue staining vs misfolded-protein stress (HCT116 cells [1]; comparable CHOP-induced DR5 protein, no ER stress): drastically lower levels of PARP cleavage and trypan blue staining | Dead concentration (HCT116 cells [1]; [3]): 1.35E+05 | Live concentration (HCT116 cells [1]; [3]): 2.23E+06 | Total Concentration (HCT116 cells [1]; [3]): 2.36E+06 | Viability (%) (HCT116 cells [1]; [3]): 94.2928% | Dead concentration (HCT116 cells [1]; [4]): 1.47E+05 | Live concentration (HCT116 cells [1]; [4]): 3.33E+06 | Total Concentration (HCT116 cells [1]; [4]): 3.48E+06 | Viability (%) (HCT116 cells [1]; [4]): 95.7841% | Dead concentration (HCT116 cells [1]; [5]): 3.40E+05 | Live concentration (HCT116 cells [1]; [5]): 8.69E+06 | Total Concentration (HCT116 cells [1]; [5]): 9.03E+06 | Viability (%) (HCT116 cells [1]; [5]): 96.2338% | Dead concentration (HCT116 cells [1]; [6]): 8.03E+05 | Live concentration (HCT116 cells [1]; [6]): 1.85E+07 | Total Concentration (HCT116 cells [1]; [6]): 1.93E+07 | Viability (%) (HCT116 cells [1]; [6]): 95.8447% | Dead concentration (HCT116 cells [1]; [7]): 2.17E+05 | Live concentration (HCT116 cells [1]; [7]): 3.23E+06 | Total Concentration (HCT116 cells [1]; [7]): 3.44E+06 | Viability (%) (HCT116 cells [1]; [7]): 93.6968% | Dead concentration (HCT116 cells [1]; [8]): 5.81E+05 | Live concentration (HCT116 cells [1]; [8]): 4.15E+06 | Total Concentration (HCT116 cells [1]; [8]): 4.73E+06 | Viability (%) (HCT116 cells [1]; [8]): 87.7171% | Dead concentration (HCT116 cells [1]; [9]): 6.69E+05 | Live concentration (HCT116 cells [1]; [9]): 1.10E+07 | Total Concentration (HCT116 cells [1]; [9]): 1.17E+07 | Viability (%) (HCT116 cells [1]; [9]): 94.2771% | Dead concentration (HCT116 cells [1]; [10]): 3.52E+05 | Live concentration (HCT116 cells [1]; [10]): 2.13E+06 | Total Concentration (HCT116 cells [1]; [10]): 2.48E+06 | Viability (%) (HCT116 cells [1]; [10]): 85.8156% | Dead concentration (HCT116 cells [1]; [11]): 2.99E+05 | Live concentration (HCT116 cells [1]; [11]): 4.40E+06 | Total Concentration (HCT116 cells [1]; [11]): 4.70E+06 | Viability (%) (HCT116 cells [1]; [11]): 93.633% | Dead concentration (HCT116 cells [1]; [12]): 3.40E+05 | Live concentration (HCT116 cells [1]; [12]): 4.92E+06 | Total Concentration (HCT116 cells [1]; [12]): 5.26E+06 | Viability (%) (HCT116 cells [1]; [12]): 93.534% | Dead concentration (HCT116 cells [1]; [13]): 2.82E+05 | Live concentration (HCT116 cells [1]; [13]): 3.04E+06 | Total Concentration (HCT116 cells [1]; [13]): 3.32E+06 | Viability (%) (HCT116 cells [1]; [13]): 91.5194% | Dead concentration (HCT116 cells [1]; [14]): 2.93E+05 | Live concentration (HCT116 cells [1]; [14]): 4.07E+06 | Total Concentration (HCT116 cells [1]; [14]): 4.36E+06 | Viability (%) (HCT116 cells [1]; [14]): 93.2796% | Dead concentration (HCT116 cells [1]; [15]): 1.88E+05 | Live concentration (HCT116 cells [1]; [15]): 3.95E+06 | Total Concentration (HCT116 cells [1]; [15]): 4.14E+06 | Viability (%) (HCT116 cells [1]; [15]): 95.4674% | Difference between means (HCT116 cells [2]; CHOP - 125 ng vs. empty, Welch's correction): 0.4983 ± 1.264 | Mean ± SEM (Fig 1S2D) (HCT116 cells [2]; CHOP - 125 ng): 4.046 ± 0.1409, n=3 | Difference between means (HCT116 cells [2]; CHOP - 250 ng vs. CHOP - 125 ng, Welch's correction): 4.057 ± 2.101 | Mean ± SEM (Fig 1S2D) (HCT116 cells [2]; CHOP - 250 ng): 8.103 ± 2.097, n=3 | Difference between means (HCT116 cells [2]; CHOP - 500 ng vs. CHOP - 125 ng, Welch's correction): 4.960 ± 2.593 | Difference between means (HCT116 cells [2]; CHOP - 500 ng vs. CHOP - 250 ng, unpaired t test): 0.9028 ± 3.332 | Difference between means (HCT116 cells [2]; CHOP - 500 ng vs. MPZ-GFP, unpaired t test): -28.90 ± 5.936 | Difference between means (HCT116 cells [2]; CHOP - 500 ng vs. empty, unpaired t test): 5.458 ± 2.878 | Mean ± SEM (Fig 1S2D) (HCT116 cells [2]; CHOP - 500 ng): 9.006 ± 2.589, n=3
